{
  "source": "patent US20100297703A1",
  "about": "(published 2010)",
  "binders": {"B1": {"name": "YoeB-3×FLAG protein (other)", "chain": "KNTSGDLSQKQALQLALSAREHFWNTMSGHNPKVKKAVCPSGTFEYQNLQYVYMCSDLGTKAKAVNYLTPIFTKTAIEKGFKDYHFTVSKGKLAVPIGDGDNLLNWKKSTAKLISKKGSTITYEFTVPTLDGSPSAKRKVTFVKENKKWKVNQFDAVI", "notes": "Expressed in B. subtilis WE1 from pCA3FLYoeB with IPTG, extracted from the cell surface with LiCl and purified on anti-FLAG M2 gel; also called YoeB protein (bait from the WE1YoeB3FL strain); not shown: 3×FLAG tag"}},
  "assay_in_all_cases": "anti-FLAG purification of YoeB-3×FLAG from cell surface extract, SDS-PAGE band integration of the co-purified protein",
  "key": {"CwlE protein": {"molecular_target": "T1, CwlE protein (Bacillus subtilis, UniProt O07532 27-488)", "T1 construct": "Endogenous protein of the WE1YoeB3FL strain, co-purified with YoeB-3×FLAG", "T1 sequence (O07532 27-488 limits assumed)": "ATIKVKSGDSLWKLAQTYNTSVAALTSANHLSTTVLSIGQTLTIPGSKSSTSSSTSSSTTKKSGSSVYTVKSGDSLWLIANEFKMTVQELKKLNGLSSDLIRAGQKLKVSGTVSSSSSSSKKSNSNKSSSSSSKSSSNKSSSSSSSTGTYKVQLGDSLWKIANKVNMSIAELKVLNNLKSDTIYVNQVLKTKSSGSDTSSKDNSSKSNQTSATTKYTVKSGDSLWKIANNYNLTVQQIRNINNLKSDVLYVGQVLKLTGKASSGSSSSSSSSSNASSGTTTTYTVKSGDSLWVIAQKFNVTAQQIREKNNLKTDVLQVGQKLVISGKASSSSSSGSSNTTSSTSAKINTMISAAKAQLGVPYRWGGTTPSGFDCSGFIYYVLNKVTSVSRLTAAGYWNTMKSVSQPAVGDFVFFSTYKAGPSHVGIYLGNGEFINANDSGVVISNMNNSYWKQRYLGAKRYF", "procedure": "(§1) After the pre-culture, the pre-cultured strain was inoculated in 50 ml of LB liquid medium to bring the OD₆₀₀ value to 0.01, and main culture was conducted until the OD₆₀₀ value reached 2.0. After the completion of the culture, the culture solution was centrifuged at 10,000 rpm for 10 minutes. The supernatant was removed and the precipitate was washed with 25 mM Tris-HCl (pH 7.2). The washed precipitate was suspended in 3M LiCl (25 mM Tris-HCl, pH 7.2) to a density of 10 μl/OD, and the suspension was allowed to stand on ice for 20 minutes. Thereafter, centrifugation was carried out at 4° C. and 10,000 rpm for 10 minutes. The supernatant was recovered, TCA (trichloroacetic acid) was added to a final concentration of 5%, the mixture was thoroughly mixed, and the resulting suspension was allowed to stand on ice for 60 minutes. Thereafter, centrifugation was carried out at 4° C. and 15,000 rpm for 5 minutes. The supernatant was removed, and the precipitate was rinsed with 70% ethanol to thoroughly remove TCA. Thus, outer surface proteins were extracted from the WE1YoeB3FL strain and the WE1E3FL strain, respectively.\n(§2) The mixture was mildly (8 rpm) agitated at 4° C. for 1 hour. Thereafter, centrifugation was carried out at 5,000 rpm for 1 minute. The supernatant was removed while carefully refraining from suctioning the precipitated gel. Thereafter, 500 μl of TBS buffer was added to prepare a suspension. Thereafter, the gel was transferred to the Spin Column (Micro Bio Spin Chromatography Columns (BIO RAD)), and the gel was trapped via centrifugation at 1,000 g for 30 seconds. Thereafter, the resultant was washed three times with 500 μl of TBS buffer. Subsequently, 100 μl of Glycine HCl elution buffer (0.1M glycine-HCl) was sequentially added thereto and thoroughly agitated. Elution was carried out 1 minute later at 1,000 g for 30 seconds, and this procedure was repeated two times. The products were combined to prepare an eluted solution.\n(§3) Subsequently, the band pattern of the resulting eluted solution was inspected via SDS-PAGE. Electrophoresis was carried out by charging proteins in amounts corresponding to the amount extracted from the cells (OD₆₀₀=200) to the relevant lanes."}, "CwlF protein": {"molecular_target": "T2, CwlF protein (Bacillus subtilis, UniProt P54421 26-334)", "T2 construct": "Endogenous protein of the WE1YoeB3FL strain, co-purified with YoeB-3×FLAG", "T2 sequence (P54421 26-334 limits assumed)": "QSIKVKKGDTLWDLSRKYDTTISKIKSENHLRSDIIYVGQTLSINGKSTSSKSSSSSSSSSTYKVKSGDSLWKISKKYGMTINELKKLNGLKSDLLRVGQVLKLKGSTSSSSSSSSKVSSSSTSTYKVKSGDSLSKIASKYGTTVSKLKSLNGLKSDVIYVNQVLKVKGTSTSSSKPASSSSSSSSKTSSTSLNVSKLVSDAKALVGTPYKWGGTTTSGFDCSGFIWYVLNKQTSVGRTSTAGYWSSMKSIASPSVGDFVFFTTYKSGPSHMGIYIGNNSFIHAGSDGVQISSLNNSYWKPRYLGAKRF", "procedure": "as §1, §2, §3"}, "YojL protein": {"molecular_target": "YojL protein (Bacillus subtilis, UniProt O31852 27-414)", "procedure": "as §1, §2, §3"}},
  "data": [
    {"binder": "B1", "values": [
      {"measurement": "Integrated value", "setting": "CwlE protein", "value": 30100},
      {"measurement": "Integrated value/Molecular weight", "setting": "CwlE protein", "value": 0.59},
      {"measurement": "Proportion relative to YoeB (1)", "setting": "CwlE protein", "value": 0.89},
      {"measurement": "Integrated value", "setting": "CwlF protein", "value": 1250},
      {"measurement": "Integrated value/Molecular weight", "setting": "CwlF protein", "value": 0.03},
      {"measurement": "Proportion relative to YoeB (1)", "setting": "CwlF protein", "value": 0.05},
      {"measurement": "Integrated value", "setting": "YojL protein", "value": 989},
      {"measurement": "Integrated value/Molecular weight", "setting": "YojL protein", "value": 0.02},
      {"measurement": "Proportion relative to YoeB (1)", "setting": "YojL protein", "value": 0.03}
    ]}
  ]
}
